9 molecules from patent US20240287172A1 (SCIRHOM, published 2024) can be followed below.

Numbering of substitutions follows the chain as printed.

The labels stand for the following.
T1: hiR2-FL-R543Q-T7 (human, UniProt Q6PJF5 1-856)
T1 sequence: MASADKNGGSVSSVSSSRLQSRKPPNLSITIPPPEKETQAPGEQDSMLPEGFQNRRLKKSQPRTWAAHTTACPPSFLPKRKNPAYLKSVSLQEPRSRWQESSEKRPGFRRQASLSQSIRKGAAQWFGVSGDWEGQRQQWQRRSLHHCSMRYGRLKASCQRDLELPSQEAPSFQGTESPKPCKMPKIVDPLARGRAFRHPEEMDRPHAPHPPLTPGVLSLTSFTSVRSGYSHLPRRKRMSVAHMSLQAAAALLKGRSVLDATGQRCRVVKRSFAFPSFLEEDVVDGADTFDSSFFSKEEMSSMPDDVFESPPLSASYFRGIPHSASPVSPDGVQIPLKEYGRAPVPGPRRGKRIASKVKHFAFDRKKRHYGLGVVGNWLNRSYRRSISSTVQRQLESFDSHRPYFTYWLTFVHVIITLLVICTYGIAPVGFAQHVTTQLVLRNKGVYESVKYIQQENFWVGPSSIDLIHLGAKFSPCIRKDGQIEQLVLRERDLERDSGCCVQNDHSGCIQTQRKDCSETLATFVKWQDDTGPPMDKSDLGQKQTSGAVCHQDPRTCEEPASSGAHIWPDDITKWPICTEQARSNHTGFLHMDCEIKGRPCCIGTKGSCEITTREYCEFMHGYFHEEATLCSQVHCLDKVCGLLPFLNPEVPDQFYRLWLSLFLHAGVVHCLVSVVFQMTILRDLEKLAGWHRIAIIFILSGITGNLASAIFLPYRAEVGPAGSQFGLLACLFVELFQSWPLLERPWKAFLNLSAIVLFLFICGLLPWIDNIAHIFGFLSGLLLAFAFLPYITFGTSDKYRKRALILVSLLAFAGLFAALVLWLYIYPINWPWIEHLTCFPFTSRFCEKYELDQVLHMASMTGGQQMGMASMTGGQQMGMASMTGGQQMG

T2: hiR2-FL-P533-T7 (deletion of P533) (human, UniProt Q6PJF5 1-856)
T2 construct: single residue deletion, not a substitution; on MEF-DKO cells
T2 sequence: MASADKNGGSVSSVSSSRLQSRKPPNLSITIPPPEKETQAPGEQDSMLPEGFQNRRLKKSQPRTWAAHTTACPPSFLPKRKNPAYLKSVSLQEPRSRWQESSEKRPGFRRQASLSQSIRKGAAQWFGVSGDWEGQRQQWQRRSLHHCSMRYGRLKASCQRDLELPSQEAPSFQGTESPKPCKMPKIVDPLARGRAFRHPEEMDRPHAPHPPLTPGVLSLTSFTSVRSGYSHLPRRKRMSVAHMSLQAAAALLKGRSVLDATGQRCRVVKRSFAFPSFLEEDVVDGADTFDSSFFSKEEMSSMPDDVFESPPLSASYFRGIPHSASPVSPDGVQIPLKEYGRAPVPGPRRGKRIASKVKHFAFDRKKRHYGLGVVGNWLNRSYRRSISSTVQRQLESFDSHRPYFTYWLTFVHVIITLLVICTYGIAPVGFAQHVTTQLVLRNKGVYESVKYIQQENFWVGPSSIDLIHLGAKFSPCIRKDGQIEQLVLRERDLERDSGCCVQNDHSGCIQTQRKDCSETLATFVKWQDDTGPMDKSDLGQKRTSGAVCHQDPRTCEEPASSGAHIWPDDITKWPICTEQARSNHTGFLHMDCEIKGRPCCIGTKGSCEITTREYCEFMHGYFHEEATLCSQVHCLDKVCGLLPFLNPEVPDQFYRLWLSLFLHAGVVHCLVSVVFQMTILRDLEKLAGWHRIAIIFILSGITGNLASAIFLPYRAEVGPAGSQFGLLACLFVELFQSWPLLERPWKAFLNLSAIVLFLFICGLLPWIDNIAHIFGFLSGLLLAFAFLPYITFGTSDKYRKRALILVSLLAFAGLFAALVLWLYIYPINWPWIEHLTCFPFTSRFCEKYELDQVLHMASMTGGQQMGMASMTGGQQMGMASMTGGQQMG

B1: antibody 34 (antibody, V domains shown)
VH: QVTLKESGPGILQPSQTLSLTCSFSGFSLSTFSLGVGWIRQSSGKGLEWLAHIWWDDEKYYNPALKSRLTISKDTSKNQVFLKIANVDAADTATYYCARAYYSKSYYALDYWGQGTSVTVSS
VL: DIQMTQSPSSLSASLGERVSLTCRASQEISGYLSWLQQKPDGTIKRLIYAASTLDSGVPKRFSGSRSGSDYSLAISSLESEDFADYYCLQYANFPFTFGSGTKLEIK
notes: mouse IgG, kappa light chain; also called clone #34; purified antibody 34
B2: antibody 3 (antibody, V domains shown)
VH: QVTLKESGPGILQPSQTLSLTCSFSGFSLTTFAMGIGWVRQPSGKGLEWLAHIWWDGEKYNNPVLKSRLTISKDTSKNQVFLRIANVDTPDTATYYCARISSIYYIIDNWGQGTSVTVSS
VL: DIVLTQSPATLSVTPGHSVSLSCRASQSISNNLHWYQKKSHESPRLLIKYVSQSISGIPSRFSGSGSGTDFTLSINSVETEDFGMYFCQQSYNWPLTFGAGTKLELK
notes: mouse IgG, kappa light chain; also called clone #3; purified antibody 3
B3: antibody 5 (antibody, V domains shown)
VH: QVTLKESGPGILQPSQTLSLTCSFSGFSLSTFGMGVGWIRQPSGKGLEWLAHIWWDDEKYYNSALKSRLTISKATSKNQAFLKIANVDTADTATYYCARISNYGSNYWYFNVWGTGTTVTVSS
VL: QVVLTQSPALMSASPGEKVTMTCSAGSSVSCMYWYQQKPGSSPRVLIYDTSNLASGVPARFTGSGSGTSYSLTISRMEAEDAASYYCQQWNSYPLTFGAGTKLELK
notes: mouse IgG, kappa light chain; also called clone #5; purified antibody 5
B4: antibody 42 (antibody, V domains shown)
VH: B3 VH with F24L, M34R, S63P, A74D, A80V, K83R, S101Q, N111D
VL: LIVLTQSPAIMSASPGEKVTMTCGATSRISYMFWYQQKPGSSPRVLIYDTSNLASGVPVRFSGSGSGTSYSLTISRVEAEDVATYYCQQWNSYPLTFGAGTKLELK
notes: mouse IgG, kappa light chain; also called clone #42; purified antibody 42
B5: antibody 44 (antibody, V domains shown)
VH: B3 VH with G44E, E58D, S63P, A74D, A80I, A85T, D91E, A98S, S101G, N111D
VL: QIVLTQSPAVMSASPGEKVTMTCTASSSVYYMYWYQQTPGSSPRLLIYDTSNLASGVPVRFSGSGSGTSYSLTISRMEAEDAATYYCQQWNTYPLTFGAGTKLELK
notes: mouse IgG, kappa light chain; also called clone #44; purified antibody 44
B6: antibody 43 (antibody, V domains shown)
VH: B3 VH with T3A, P42S, H52N, E58D, S63P, A74D, T75A, S101G, N111D
VL: B4 VL with L1Q, K18R, G24S, T26N, F33Y, V45L, V77M, V82A, Y86N, N91S
notes: mouse IgG, kappa light chain; also called clone #43; purified antibody 43
B7: antibody 22 (antibody, V domains shown)
VH: B3 VH with A80V
VL: B3 VL with C31Y, S84T
notes: mouse IgG, kappa light chain; also called clone #22; purified antibody 22
B8: antibody 50 (antibody, V domains shown)
VH: QVQLQQSGAELVRPGASVKVSCKASGYAFSNYLIEWVKQRPGQGLEWIGVINPGSGFTKYNEKFKGKATLTADKSSSTAYMQLSSLTSEDSAVYFCARGLYRAMDYWGQGTSVTVSS
VL: DIQMTQSPASQSASLGESVTITCLASQTIGTWLAWYQQKPGKSPQLLIYAAASLADGVPSRFSGGGSGTKFSFKISSLQAEDFVNYYCQQIYSTPYTFGGGTKLEIK
notes: mouse IgG, kappa light chain; also called clone #50; purified antibody 50
B9: antibody 16 (antibody, V domains shown)
VH: QVTLKESGPGILQPSQTLSLTCSFSGFSLSTFALGVGWIRQPSGRGLEWLAHIWWDDDKYYNPALKSRLTISKDTSKNHVFLKIANVDTADTATYYCARITTYYYGMDYWGQGTSVTVSS
VL: B2 VL with T5S, H17D, S22F, S30G, N32H, K38Q, K39E, E42A, V51A
notes: mouse IgG, kappa light chain; also called clone #16; purified antibody 16

For the first experiment, the target named is T1, hiR2-FL-R543Q-T7. Description: FACS, MEF-DKO cells, 3 µg/ml. An excerpt: (§1) In brief, immortalized MEF-DKO-hiR2-FL-WT-T7 cells, MEF-DKO-miR2-FL-WT-T7 cells and MEF-DKO-hiR2-FL-R441K-T7, MEF-DKO-hiR2-FL-K443R-T7, MEF-DKO-hiR2-FL-V459I-T7, MEF-DKO-hiR2-FL-G481Q-T7, MEF-DKO-hiR2-FL-L488R-T7, MEF-DKO-hiR2-FL-L493I-T7, MEF-DKO-hiR2-FL-D496T-T7, MEF-DKO-hiR2-FL-H505R-T7, MEF-DKO-hiR2-FL-Q512L-T7, MEF-DKO-hiR2-FL- R513K-T7, MEF-DKO-hiR2-FL-D528N-T7, MEF-DKO-hiR2-FL-P533-T7, MEF-DKO-hiR2-FL-M534S-T7, MEF-DKO-hiR2-FL-G540S-T7, MEF-DKO-hiR2-FL-R543Q-T7, MEF-DKO-hiR2-FL-T544P-T7, MEF-DKO-hiR2-FL-G546A-T7, MEF-DKO-hiR2-FL-A547V-T7, MEF-DKO-hiR2-FL-R582Q-T7, MEF-DKO-hiR2-FL-F588L-T7, MEF-DKO-hiR2-FL-M591I-T7, MEF-DKO-hiR2-FL-E594K-T7, MEF-DKO-hiR2-FL-E626D-T7, MEF-DKO-hiR2-FL-L657I-T7, and MEF-DKO-hiR2-FL-H835Y-T7 cells were harvested with 10 mM EDTA in PBS, washed and resuspended in FACS buffer (PBS, 3% FBS, 0.05% sodium azide), and seeded in Nunc U-bottom 96-well plates (Thermo Fisher Scientific, USA) at approximately 3×10⁵ cells per well.
(§2) To pellet cells and remove supernatants, the plates were centrifuged at 1,500 rpm and 4° C. for 3 minutes. For primary staining, cells were resuspended in 100 μl per well of either FACS buffer alone (controls) or the purified antibodies 3, 5, 16, 22, 34, 42, 43, 44, 48, and 50 of the invention at 3 μg/ml FACS buffer and incubated on ice for 1 hour. Afterwards, plates were centrifuged at 1,500 rpm and 4° C. for 3 minutes and washed twice with 200 μl per well of FACS buffer. For secondary staining, cells were spun down and resuspended in 100 μl per well of PE-conjugated goat anti-mouse IgG F(ab′)2 detection fragment (Dianova, Germany) diluted 1:100 in FACS buffer. Protected from light, the cell suspensions were incubated on ice for 1 hour. Plates were then centrifuged at 1,500 rpm and 4° C. for 3 minutes and washed three times with 200 μl per well of FACS buffer. Finally, cells were resuspended in 150 μl per well of FACS buffer and analyzed using a BD Accuri™ C6 Plus flow cytometer (Becton Dickinson, Germany).
Regarding B1, the “loss of binding vs wild type” value is ≥ 95%.
As to B2, the “loss of binding vs wild type” value was ≥ 60%.
Regarding B3, the “loss of binding vs wild type” value is ≥ 95%.
In the case of B4, the “loss of binding vs wild type” value is ≥ 95%.
The same measure, in the same setting: the figure for B5 is ≥ 60%; for B6 it is ≥ 95%.
For the molecule B7, the “loss of binding vs wild type” value was ≥ 60%.
Regarding B8, the “loss of binding vs wild type” value was ≥ 30%.

The target in the next experiment is T2, hiR2-FL-P533-T7 (deletion of P533). Briefly: FACS, MEF-DKO cells, 3 µg/ml.
Excerpt: as §1, §2
A general note: In flow cytometry, cells or beads pass a laser one at a time.
With B1, the “loss of binding vs wild type” value is ≥ 95%.
The same measure, in the same setting: the figure for B9 is ≥ 95%; for B2 it is ≥ 95%; for B3 it is ≥ 95%.
With B4, the “loss of binding vs wild type” value was ≥ 95%.
On the same count and under the same terms, the figure for B5 is ≥ 95%; for B6 it is ≥ 95%; for B7 it is ≥ 95%.
